Measurements: patent publication US20130157932A1, “NGAL AND URINARY TRACT INFECTION” (The Trustees of Columbia University in the City of New York, priority 2010, published 2013)
“Also recorded” adds a separate entry of the source.

Assays:
[1] = system: UPEC iron acquisition genes; assay: Real time PCR of UPEC iron acquisition genes; assay type: cell-based, Escherichia coli
Text: To determine whether NGAL-Scn induced bacterial iron starvation, we measured a series of iron acquisition systems (9, 10) that are regulated by iron load via fur, including catecholates enterochelin (ent genes) and salmochelin (iro genes), the hydroxamate aerobactin (iuc genes) (11, 12), their receptors, fepA, iroN (13-15), and iutA, respectively, and additionally the heme scavenging chu receptors (15). […] In sum, uNGAL-Scn is expressed within hours of the onset of infection in vivo, and it is required to limit bacterial growth during the early phases of acute cystitis, most likely by blocking iron acquisition.
Total RNA was isolated with the mirVANA (for eukaryotic cells) or ribopure (for bacteria) RNA extraction kits (Ambion). First strand cDNA was synthesized with Superscript III (Invitrogen). Real-time PCR was performed in a 7500 Fast (Applied Biosystems) with a SYBR green supermix reagent (Fisher) and primers (Table 2) using β-actin (eukaryotic cells) and gapA (for bacteria) as internal controls. Fold amplification of transcripts was measured by the […] method.

[2] = system: uropathogenic Escherichia coli strain (CFT073); assay: In vitro growth of UPEC CFT073 in M9 minimal medium or urine; assay type: cell-based; conditions: for bacterial growth after addition of FeCl3 to NGAL: M9 with NGAL 5 μM plus FeCl3 1 mM; for bacterial growth (optical density): M9 minimal medium; for growth of UPEC (OD600) in urine: human urine pH 5.8 (<pH 6.0), NGAL-Scn 5 μM
Text: To investigate the relationship between NGAL and UPEC a pyelonephritogenic clinical isolate of uropathogenic Escherichia coli, CFT073, was aliquoted in 96 well plates containing M9 minimal medium supplemented with MgCl2 and glucose (see green hashed line: FIG. 1a), and bacterial growth was monitored by spectrophotometry.
Next, we tested whether NGAL-Scn was sufficient to inhibit urinary bacterial growth. We used UPECs grown to log phase in an iron restricted minimal media (M9), and then subsequently transferred the bacteria into urine or M9. Growth in human urine (<pH 6.0) was similar to growth in acidified M9 (<pH 6.0; FIG. 8C, D).
A single colony of CFT073 was selected from a plate and grown in M9 to log phase. Bacteria were pelleted and resuspended in either M9 or urine and monitored in a 96 well plate on a Tecan 200 Promicroplate reader for up to 72 h.

NGAL-Scn expression = NGAL-Scn expression in mice after i.p. LPS; assay type: in vivo, mouse
Protocol: To identify elements of the pathway that detect UPEC, we evaluated whether IC could respond to a low dose of LPS (i.p. 1 mg kg^−1), a TLR4 agonist. […] To assess the role of TLR4 further, we inoculated LPS-responsive C3H/HeN (Lps“) and C3H/HeOuJ (Lps”) mice and LPS-defective C3H/HeJ (Lps^d) mice by TU with […] of 5×10^8 CFU ml^−1 (n=15). […] To confirm that kidney expressed TLR4 was critical, we cross-transplanted Lps^d kidneys into nephrectomized Lps^n controls and vice versa. […] Concurrently, TLR4 modulates the burden of urinary infection, by regulating the expression of NGAL-Scn in kidney epithelia.

[3] = system: Ngal expression in the kidney; assay: Kidney Ngal expression (QPCR) after lipid A/LPS in reciprocal kidney cross-transplants; assay type: in vivo, mouse; conditions: 1 mg/kg, vs untreated cross transplant, n=3
Protocol: To determine whether uNGAL originated from the kidney in a TLR-dependent fashion, kidney transplantation between Tlr-4-mutant CH3/HeJ mice and wild type CH3/HeOuJ mice was performed. To evaluate the contribution of TLR signaling to NGAL expression a cross-transplant model using TLR mutants and systemic administration of LPS as a positive control was used. The CH3/HeJ kidneys from the LPS-insensitive mice were transplanted into CH3/HeOuJ LPS-sensitive (control) mouse bodies, and vice versa. Two weeks after graft maturation, when uNGAL and sCr had stabilized to normal values, a low dose of lipid A (1 mg/kg of body weight) was administered to induce Ngal expression in the kidney (FIG. 4a). […] It is not surprising that there was some Ngal induction in the knockout (KO) kidney because CH3/HeJ are partial KOs and it has also been previously shown that lipid A can signal through the MyD88-dependent pathway without a functioning Tlr4. […]
To identify elements of the pathway that detect UPEC, we evaluated whether IC could respond to a low dose of LPS (i.p. 1 mg kg^−1), a TLR4 agonist. […]
Surgical cross-transplants (1, 44) were monitored for two weeks until serum creatinine stabilized to 0.2 mg dL^−1 and uNGAL-Scn was undetectable prior to ip challenge with LPS (1 mg kg^−1).

explanted bladders = assay: NGAL-Scn secretion by bladders explanted from LPS treated mice; assay type: in vivo, mouse
Protocol: FIGS. 17A-B. C57/BL6 mice challenged with i.p. LPS (1 mg kg^−1) were explanted and media collected at 12 h and 24 hr of culture. FIG. 17A. […] FIG. 17B. NGAL-Scn was detected by Western blot.
Because both the bladder and kidney might contribute to uNGAL-Scn expression, we performed in situ hybridization 1 d post-TU challenge with UPEC (20-30 μl of 5×10^8 CFU ml^−1 i.e. ˜1×10^7 total CFU). We found Ngal-Scn message in collecting duct epithelia (FIG. 8H) (1) and in a thin luminal layer of bladder epithelia (FIG. 8I), but the majority of Ngal-Scn transcripts were found in the kidney (FIG. 8J). Moreover, in a controlled experiment, bladders explanted from mice treated with LPS (1 mg kg^−1) secreted approximately 10 ng per bladder over 12 h (FIG. 17), a small percentage of even a single collection of urine (250 ng ul^−1) from the treated mouse. In sum, while many types of genitourinary epithelia can express uNGAL-Scn in response to cystitis, the kidney was a dominant source of NGAL-Scn, even though kidney bacteria fell at, or below, our limit of detection (10^2 CFU kidney^−1; FIG. 18), and an inoculum less than 50 μl is not likely to generate gross vesico-ureteral reflux (VUR) (24).

[4] = system: Primary Ngal-Luciferase2/mCherry medullary cells; assay: NGAL-Luc2 expression in primary Ngal-Luciferase2/mCherry kidney cells co-cultured with UPEC; assay type: cell-based, mouse; conditions: co-culture with UPEC 3 h; antibiotic added at the time of UPEC; n=3
Protocol: […] Alternatively, primary cells were treated with Lipid A and in some cases with NF-kB inhibitors, MG132 (Cayman Chemical), and Analogues 27, 30, and 3121 and Analogue 3022. The Luciferase substrate (Dual-Glo™ Luciferase Assay System; Promega) was added and luminescence from Luc2 and fluorescence from mC (excitation of 500-550 nm and emission of 575-650 nm) were imaged in a Xenogen IVIS optical imaging system.
Luc2/mC di-fusion reporter mice (8-12 weeks of age) were perfused with PBS and kidney cells were isolated with collagenase (2 mg ml^−1; Sigma), and cultured (1×10^5 well^−1 in 24-well plates; Falcon) in DMEM/F12 medium supplemented with 10% FBS, 1% penicillin-streptomycin, and 46 mg/l L-Valine for 24 h. […] Luciferase substrate (Dual-Glo Luciferase Assay System; Promega) was added and luminescence from Luc2 and fluorescence from mC (excitation 500-550 nm and emission 575-650 nm) were imaged in a Xenogen IVIS optical imaging system.

Enterochelin:Fe [5] = assay: Enterochelin:Fe capture by NGAL-Scn; assay type: binding; conditions: 3:1 Enterochelin:Fe::Ngal-Scn ratio; washed 5 times on 10 k filter
Protocol: . IPTG (0.2 mM final concentration) was added for 5 h. Bacterial pellets were lysed by sonication in lysis buffer, followed by Triton-X 100 (0.5%) treatment for 30 min on ice. Supernatant was collected after high speed centrifugation and filter sterilized (0.45 μm). NGAL-Scn-GST was purified by binding to Glutathione Sepharose beads followed by cleavage of the GST tag with thrombin. Released protein was fractionated by a Sephacryl S100HR column. Enterochelin:Fe capture by NGAL-Scn was tested (Emc Microcollections gmbh) at a 3:1 Enterochelin:Fe::Ngal-Scn ratio.

Enterochelin:Fe [6] = conditions: pH 4.0; cited from earlier work
[7] = M9 with iron added to match urinary concentration (806 nM)

CC(=O)N(O)CCCCCNC(=O)CCC(=O)N(O)CCCCCNC(=O)CCC(=O)N(O)CCCCCN [DFO, reference compound]
UPEC iron acquisition gene expression with DFO ([1]; M9 media, DFO 50 μM or 5 μM, n=5): modulated

[Cl][Fe]([Cl])[Cl] [FeCl3, reference compound]
bacterial growth after addition of FeCl3 to NGAL [2]: rescued | bacterial growth after addition of FeCl3 to NGAL ([2]; listed as iron): reversed

Lipid A [LPS]
NGAL-Scn in a single collection of urine from the treated mouse (NGAL-Scn expression; LPS 1 mg kg^−1): 250 ng/µL | NGAL-Scn expression in intercalated cells / kidney medulla (NGAL-Scn expression; i.p. LPS 1 mg kg^−1, in situ hybridization): induced NGAL-Scn expression; also recorded: detected in alternating cells | increase in Ngal expression, Tlr-4-mutant (Lps^d) kidney in wild type (Lps^n) host [3]: 4.5±2.6 fold | increase in Ngal expression, wild type (Lps^n) kidney in Tlr-4-mutant (Lps^d) host [3]: 15.6±2.3 fold | NGAL-Scn upregulation in bladder explant media at 12 h (explanted bladders; C57/BL6, i.p. LPS 1 mg kg^−1, 12 h of culture, vs control, n=10): 2 fold | NGAL-Scn upregulation in bladder explant media at 24 h (explanted bladders; C57/BL6, i.p. LPS 1 mg kg^−1, 24 h of culture, vs control, n=10): 5 fold | NGAL-Scn secreted by explanted bladder (explanted bladders; LPS 1 mg kg^−1, over 12 h): approximately 10 ng per bladder

gentamicin
NGAL-Luc2 expression in response to UPEC [4]: blunted

B1: Neutrophil Gelatinase Associated Lipocalin (NGAL)-Siderocalin (Scn) (protein, UniProt P11672 21-200, looked up)
Neutrophil …: QDSTQNLIPAPSLLTVPLQPDFRSDQFRGRWYVVGLAGNAVQKKTEGSFTMYSTIYELQENNSYNVTSILVRDQDQGCRYWIRTFVPSSRAGQFTLGNMHRYPQVQSYNVQVATTDYNQFAMVFFRKTSENKQYFKITLYGRTKELSPELKERFTRFAKSLGLKDDNIIFSVPTDQCIDN
modifications: recombinant, E. coli
notes: Recombinant mouse NGAL-Scn protein produced in BL21 E. coli
Enterochelin:Fe binding by coloration (Enterochelin:Fe [5]): binding detected | EntF activation [1, 7]: 2410 fold | iucD activation [1, 7]: 16970 fold | iutA activation [1, 7]: 1.9 fold | chuS upregulation ([1]; UPEC in M9, NGAL-Scn 5 μM): 26.9 fold | entA upregulation ([1]; UPEC in M9, NGAL-Scn 5 μM): 396.2 fold | entF upregulation ([1]; UPEC in M9, NGAL-Scn 5 μM): 36294.5 fold | fepA upregulation ([1]; UPEC in M9, NGAL-Scn 5 μM): 18.0 fold | iroN upregulation ([1]; UPEC in M9, NGAL-Scn 5 μM): 207 fold | iucA upregulation ([1]; UPEC in M9, NGAL-Scn 5 μM): 12568.5 fold | iucD upregulation ([1]; UPEC in M9, NGAL-Scn 5 μM): 19.0 fold | iutA upregulation ([1]; UPEC in M9, NGAL-Scn 5 μM): 13.4 fold | entA, entF, and iha gene expression ([1]; UPEC in M9, NGAL-Scn 5 μM for 30 min, n=5): upregulation | bacterial growth (optical density) ([2]; NGAL 5 μM): greatly inhibited | bacterial growth (optical density) ([2]; NGAL 5 μM, listed as mouse (m) NGAL): significantly inhibited | bacterial growth (optical density) ([2]; NGAL 5 μM, listed as uNGAL): inhibit growth | growth of UPEC in M9 at pH 5.8 ([2]; M9 pH 5.8 (typical urine pH), NGAL 5 μM, n=3): robust inhibition | growth of UPEC in M9 at pH 7 ([2]; M9 pH 7, NGAL 5 μM, n=3): reduced (and variable) growth inhibition | growth of UPEC (OD600) in urine ([2]; n=3): greatly inhibited | growth of UPEC (OD600) in urine ([2]; n=3, listed as uNGAL-Scn): inhibited the growth | enterochelin binding at low pH (Enterochelin:Fe [6]): binds enterochelin even at pH 4.0
